The values that follow come from article PMC2878840.

Data set [1] is described as follows: anti-CNX Western blot normalised to actin. The settings on record: glycan lost; control: mock-transfected cells.
Data set [2] is described as follows: TER of confluent monolayers on Transwells. To be noted: glycan lost; control: wild type E-cadherin (E-cad-myc).
The nature of data set [3]: ZO-1 immunoprecipitation, Western blot. To be noted: glycan lost; control: wild type E-cadherin (E-cad-myc). Background: A western blot detects proteins with antibodies after separation by electrophoresis.
The nature of data set [4]: Western blot normalised to ZO-1 or claudin-1. To be noted: glycan lost; control: wild type E-cadherin (E-cad-myc).
Data set [5] is described as follows: confocal immunofluorescence, x-z sections. To be noted: glycan lost; control: wild type E-cadherin.

B1: E-cadherin: V13 (protein)
parent chain: MGPWSRSLSALLLLLQVSSWLCQEPEPCHPGFDAESYTFTVPRRHLERGRVLGRVNFEDCTGRQRTAYFSLDTRFKVGTDGVITVKRPLRFHNPQIHFLVYAWDSTYRKFSTKVTLNTVGHHHRPPPHQASVSGIQAELLTFPNSSPGLRRQKRDWVIPPISCPENEKGPFPKNLVQIKSNKDKEGKVFYSITGQGADTPPVGVFIIERETGWLKVTEPLDRERIATYTLFSHAVSSNGNAVEDPMEILITVTDQNDNKPEFTQEVFKGSVMEGALPGTSVMEVTATDADDDVNTYNAAIAYTILSQDPELPDKNMFTINRNTGVISVVTTGLDRESFPTYTLVVQAADLQGEGLSTTATAVITVTDTNDNPPIFNPTTYKGQVPENEANVVITTLKVTDADAPNTPAWEAVYTILNDDGGQFVVTTNPVNNDGILKTAKGLDFEAKQQYILHVAVTNVVPFEVSLTTSTATVTVDVLDVNEAPIFVPPEKRVEVSEDFGVGQEITSYTAQEPDTFMEQKITYRIWRDTANWLEINPDTGAISTRAELDREDFEHVKNSTYTALIIATDNGSPVATGTGTLLLILSDVNDNAPIPEPRTIFFCERNPKPQVINIIDADLPPNTSPFTAELTHGASANWTIQYNDPTQESIILKPKMALEVGDYKINLKLMDNQNKDQVTTLEVSVCDCEGAAGVCRKAQPVEAGLQIPAILGILGGILALLILILLLLLFLRRRAVVKEPLLPPEDDTRDNVYYYDEEGGGEEDQDFDLSQLHRGLDARPEVTRNDVAPTLMSVPRYLPRPANPDEIGNFIDENLKAADTDPTAPPYDSLLVFDYEGSGSEAASLSSLNSSESDKDQDYDYLNEWGNRFKKLADMYGGGEDD
Turning to B1, the “other: calnexin expression (UPR marker)” value in data set [1] is on record as “no change”. Besides, the “other: transepithelial resistance” value in data set [2] is reported as “increases”. Further, the “other: claudin-1 in ZO-1 complexes” value in data set [3] is “increases”. Further, the “other: Ser-phosphorylation of ZO-1 and claudin-1” value in data set [4] is reported as “increases”. For the same protein, the “other: apical localisation of gp135 and ZO-1” value in data set [5] is recorded as “increases”.
